The target in assay [1] is δ receptor (δ-Binding assay, replacement of 3H-naltrindole). Nature of the assay: δ-Binding, replacement of 3H-naltrindole (radioligand displacement). Background: In a radioligand displacement assay an active substance lowers the binding of a labelled ligand.
The target in assay [2] is µ-receptor (guinea pig ileum preparation) (guinea pig). As to the kind of experiment: cell-based or functional assay.
The target of assay [3] is δ-receptor (mouse vas deferens preparation) (mouse) (UniProt P32300). Nature of the assay: cell-based or functional assay.
Chain of δ-receptor (mouse vas deferens preparation) (mouse) (P32300 whole entry, stated change not applied): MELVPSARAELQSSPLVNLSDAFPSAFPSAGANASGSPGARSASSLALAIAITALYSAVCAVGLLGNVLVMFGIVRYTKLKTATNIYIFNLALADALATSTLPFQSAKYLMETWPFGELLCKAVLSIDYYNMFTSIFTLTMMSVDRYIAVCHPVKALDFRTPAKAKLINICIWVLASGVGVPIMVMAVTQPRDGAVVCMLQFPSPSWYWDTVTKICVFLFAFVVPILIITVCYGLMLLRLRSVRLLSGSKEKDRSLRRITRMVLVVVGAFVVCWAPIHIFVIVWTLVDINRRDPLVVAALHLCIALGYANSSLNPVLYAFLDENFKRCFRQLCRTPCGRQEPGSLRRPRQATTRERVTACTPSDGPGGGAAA

One may read the IC50 as the concentration at which inhibition is half-maximal. Higher therefore signals a need for much substance. As for “Tyr-c[D-AlaL-Gly-Phe-L-AlaL]-NH2 (peptide)”, in assay [1], the IC50 is 7 nM.
For the substance Tyr-c[D-Cys-Gly-Phe-L-Cys]-OH (peptide), the GPI IC50 in assay [2] was determined as 3.06 nM.
Still for that read-out and setting: for “Tyr-c[D-Cys-Gly-Phe-D-Cys]-NH2 (peptide)” the value was 0.78 nM.
The substance Tyr-c[D-Pen-Gly-Phe-D-Pen]-OH (peptide) yielded a GPI IC50 in assay [2] of 7300 nM. For the same substance, in assay [3], the MVD IC50 stood at 4.1 nM.
In the case of “Tyr-c[D-AlaL-Gly-Phe-L-AlaL]-OH (peptide)”, the IC50 in assay [1] was found to be 1 nM.
Turning to “Tyr-c[D-Cys-Gly-Phe-L-Cys]-NH2 (peptide)”, in assay [2], the GPI IC50 came to 1.51 nM.

For the origin of these results see patent US20020165132A1.
